According to publication PMC11931385, “Structural and functional analysis of cancer-associated missense variants in the retinoblastoma protein pocket domain” (The Journal of Biological Chemistry, 2025):
Numbering of substitutions follows the chain as printed. In names and notes the source's numbering stands. No end group written: not given here. TMR = tetramethyl rhodamine dye

What was measured:
Assay in all cases: fluorescence polarisation; 25 °C; unlabeled Rb^P titrated against 1.5 nM TMR-E2F1^TD or 7.5 nM TMR-E7^LxCxE; 25 mM Tris pH 8.0, 200 mM NaCl, 1 mM DTT, 0.1% Tween-20; 2 min incubation; quadratic fit; apparent Kd for the variants, Kd for WT
Conditions in all cases: both partners purified
[1] = molecular target: T1, Rb^P D584Y (human, UniProt P06400 380-788, D584Y)
T1 construct: also called variant 32
T1 sequence (looked up): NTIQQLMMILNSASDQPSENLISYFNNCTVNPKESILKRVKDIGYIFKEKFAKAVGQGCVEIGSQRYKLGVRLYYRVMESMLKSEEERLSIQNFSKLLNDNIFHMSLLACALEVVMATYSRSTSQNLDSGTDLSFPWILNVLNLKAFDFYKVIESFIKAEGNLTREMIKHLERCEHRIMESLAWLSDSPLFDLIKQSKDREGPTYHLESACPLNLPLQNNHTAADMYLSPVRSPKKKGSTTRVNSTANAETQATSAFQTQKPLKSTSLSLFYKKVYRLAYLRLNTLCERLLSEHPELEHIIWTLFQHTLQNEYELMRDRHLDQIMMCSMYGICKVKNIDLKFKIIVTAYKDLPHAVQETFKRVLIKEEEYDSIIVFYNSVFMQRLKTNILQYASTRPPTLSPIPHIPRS

[2] = molecular target: T2, Rb^P P595L (human, UniProt P06400 380-788, P595L)
T2 construct: also called variant 35
T2 sequence (looked up): T1 sequence (looked up) with Y205D, P216L

[3] = molecular target: T3, Rb^P Q444R (human, UniProt P06400 380-788, Q444R)
T3 construct: also called variant 4
T3 sequence (looked up): T1 sequence (looked up) with Q65R, Y205D

[4] = molecular target: T4, Rb^P H673Y (human, UniProt P06400 380-788, H673Y)
T4 construct: also called variant 55
T4 sequence (looked up): T1 sequence (looked up) with Y205D, H294Y

[5] = molecular target: T5, Rb^P S751C (human, UniProt P06400 380-788, S751C)
T5 construct: also called variant 71
T5 sequence (looked up): T1 sequence (looked up) with Y205D, S372C

B1: TMR-E2F1^TD, peptide of the E2F1 transactivation domain (peptide)
peptide: {TMR}-GEGIRDLFDCDFGDLTPLD
notes: also called E2F^TD; source: synthetic peptide, bought: GenScript
Kd [1]: 33 nM
Kd [2]: 46 nM
Kd [3]: 15 nM
Kd [4]: 26 nM
Kd [5]: 66 nM

B2: TMR-E7^LxCxE, LxCxE peptide of the E7 oncoprotein from HPV (peptide)
peptide: DLYCYEQLN
modifications: also: TMR label, position not given here
notes: source: synthetic peptide, bought: GenScript
Kd [1]: 12 nM
Kd [2]: 14 nM
Kd [3]: 7 nM
Kd [4]: 10 nM
Kd [5]: 44 nM
